From the DeepSol protein solubility set

Test: soluble on expression in E. coli; label from the status in PepcDB or PDB records

Soluble on expression in E. coli, not soluble:
MGSDKIHHHHHHMTHDLLDLLRQWHQSPDEAWVLAVLTQVQGSSYRKPGAMMLFHPMGKSYGMLSGGCLEADLRRHAQQVIQSQCVAQVEYDASDESDSSYQLGCGGIVNIMLVTVTKANDYLGFNPLLAALARGDSVEYELSLPANASPCQQASAKLSIVPLSDNLTQAQLKGAHKAVTAYKHEVLTMRLAPPIALGIFGAGLDAQPVAAMAQQLGWQVSVFDERSAYGRLYDFPSVKVVKGPFDAIEPAILKRLDAAIVMSHNLNLDAKALSLLASLSQPHSHNNLAYLALLGPPQRRDRVLRIAGLELADIKCFFSAPAGLALGGELPSSVALSIVSQCHGVLHGSAIIALDEVMGCP, MGSDKIHHHHHHMTHFGVDLWDRFTTRIGEARETLRAAGAPTGLLDQAEGARYLSRIVRLGLEMYLEGGDPDFPSFVLPSHATAKLGGDNPDNLYLSATILGDRSYRLTGNIGSVHYLSIGSKANRYAIDGTMASTGELQKEAFRADANGDFTVIASVKRPEGDVAWLPLAPDSNILQVRQTFLNRARETPARFAIERISEGLAHPAPTDPLAIERRMMAAADFVVNATRMFASWTAMFMPYPNEMRDWGQDMFHKAGGDPAIFYVHGYWKLAPGERLLIETDVPECEHWNIQVDNWWMESMDYRYLPACINAGNAEREADGSVRIVLAADDPGERNWLTTHGHSEGHLLLRWVRAASHPIPKLTLLRD, MGSDKIHHHHHHMTHQAATVHALNPATPEGLEVRLARTRAEVAAAQRIRYRVFYEEMGAKPTVAMQTLEQDFDDYDKHCDHLVVLADGDVVGTYRLIRRSAAQAVGRFYTAGEFDISPFLAVEGEILELGRSCVDARWRHRGTLQALWQGLAGYMVENDIRLLFGCGSLPGTDPEILAPQLAYLRDNHMAPPALRGRALDSAEKVDFAGIDVAWDARRVLASLPPLLKGYLRLGGVIGDGAVIDRPFNTTDVLVVVNAADIAGRYVKRFSA, MGSDKIHHHHHHMTIRINADFSQRIVVQPGDYHWVESPMPGVQRMMLDRVGGETARATSIVRYEPFSEFSPHIHSGGEEFFVLEGVFSDEHQCYGKGSYVRNPIGSSHTPKIGKEGATIFVKLQQFDEKDTEQKVIDTQTQPWFQGLVGGLKVMPLHEFESEHVALVKWAPNTQFTAHQHWGGEEIFVLEGTFHDEHGRYPKGSWLRSPHLSRHSPFTKEEGALIYVKTGHL, MGSDKIHHHHHHMTITESRNAAVAEIEEVIGDWAEALRRKDAARVLAHGTEDCLVFSLAPPLKASDADAGGLEQWFSTWKGPLGFTLEELDVSVSGDVAFATALTHLSGEKHDGQKAALWYRLTLGLTRTDRGWKIAHQHESVPFYMDGSFKAAIDLDPRSEVDWQAPSRPPMPGVIAYLNVEDADAAAAFYVRAFGAKEEDRKHAQDGKRLIHCHLTINGGALMLNDPFPEFGHPWKPPEGFVLHLVVDDADFWWNRAVEAGAEVTMPLEIAFWGDHYGQLRDPFGVTWGIVAPVKEGG, MGSDKIHHHHHHMTKKITTHLESGLFKGKPRQKTVQHRNATTTPEMRQFIQQSDYSVSQLSKILNISEATVRKWRKRDSIDNTPNTPHKLNTTLSPMEEYVMLGLRYQLKMPLDRLLKVTQEFINPNVSRSGLARCLKRFGVSKLDEFDSPFVPEKFFNQLPITQGADIQTYTVNPKTLADTLSLPSPDPDNVVQVVSLSIPPQLTKQQAYSVLLGVDFKSDWVYLDIYQDSHTQASNRYITHVLKHGPFHLRKLLVRNYHTFLARFPGASQPAAVSTSTIDAAGSQHQITEPQLSNGDSYEPIQ, MGSDKIHHHHHHMTLLIVGATGTLGRQVARRAIDEGYKVRCLVRSPKRAAFLKEWGAELVRGDLCQPQTLAEALEGVTAVIDAATSRATDSLTIKQVDWEGQIALIQAAKAASVERFIFFSIIDADKYPEVPLMEIKRCTELFLAESGINYTVLRLAGFMQGLIGQYGIPILEGQPVWVTGASSPVAYMDTLDIAKFAVRALSVPETEKQAFPVVGTRAWSAEEIINLCERLSGKEAKVRRMPINLLRAVRGLAKFFQWGWNIADRLAFTEVLASGRPLNASMDEVYTVFGLEKEQSTTLESYLQEYFSRILKKLKQLDYEKTKTKKQKDKKTPFKKVNS, MGSDKIHHHHHHMTLSSSFAQLKDFKFKFYGQIRTDFYYNSRANEETVDGLFYMYPKDEVLDGNGEDLNATSNSNFYTLYSRLGLDVAGPKLGTAKTSAKVEVDFRGSGTSYSTIRLRHAYFNLDWGKSAVLVGQTWHPLFGDVSPQILNLSVGAPFQPFSRAPQIRYRFNNKHLQLTGALVWQSQYLSQGPAGKSQEYIKKSNIPEIYVGADYKNGGFLAGAGIEMISLKPRTQSSWEEKTFDPTTNSTISIPHTYKVDERITTLSYEAHVKYTNKNWFIGAKSVLGSNLTQASGLGGFGIKHIDNKTKEQEYTPIRFSSSWLNVVYGQKWKPGIFVGYAKNLGTSDELVSEKLYGTGTNLDKLVTAGAELTYNVPHWKFGVEYTLSSAWYGKLDKSDGKIIDTHSVSNNRIVAVAMFMF, MGSDKIHHHHHHMTMPVPHAGPTPLCSNRMQVHSITQETPDVWTISLVNHDFYPYQPGQYALVSIANSEETLRAYTISSSPGLSRFITLTVRRLDDGVGSRWLTQTLKIGDYLWLSDAQGEFTCANAVSDRYLMAAAGCGVTPIMSMCRWLLANKPQIDIHIIFNVRNPQQVIFASEWQDLVQRYPQQLHLTLMAEFDAAPGFLAGRISGDLLVERVPDITNRTVMTCGPAPYMNQIETLSQQLGVASNRIFKEQFRPTDEVVDEDADQITLTISRPLKNLRVPVGISLLAALEANKVHVLAACRAGVCGSCKTRVLSGKYTTTSTMTLTPAEIEQGYVLACSCQLQGDTVLA, MGSDKIHHHHHHMTNENELLYSSELQLSALNEAIEATPDNPYLYFKRATYFYNINNFRIAQNDIQKALRMDESVAAYWLLSAQINNELKNVDRAIEEGQKALQLGNAEPILYALLANCLLEKNDTISANQYIGKLTAIAPQMAELKYVQAKKLLIGKDTSHSFLKFRECIQNNPQYIEAYIDLMSLYYKKQMYDSIMPLLIKAKRMRPNNPTLFLYEGKFYETINKNQVALAAYKEGLLCDPQAIELYKPLSDYYGRQGNYKESMYYLSKWIEKNSSDAQSIIKMGNYALKQNDEAGAVTYYKNSLSIDSSNTYLKKEIERIEKHIRYVAQDTTN, MGSDKIHHHHHHMTNLNYCRPLSLTTNRCLMNKELETLILSAVDLPTIPLVATKVIEMIEQEDVTIEKIAQTVSADPAVAARILKLSNSAYYGCQRQINTLSGAIMLLGFRTLKSLVVAASLKQICKRFGLTEKMLWEHAVGAAIAARIISANGKFINEETAFLAGLFHDIGKTIMNDLDPSKFQQVMMRCYNEGLPFEEVERSIYSFSHAEVGALVIRKWNFPEALSTAVMNHHDFPNPTLTDQYDLFLTATTCLADKFCKKLGIGERHPDEELDLAKTQEAHLLGYTPETILRDVDQFAQTFEENKSFFIND, MGSDKIHHHHHHMTQLANTKFSLNDFELRDGIYFPSDYEQLNNTQHKKTWDAIGKTYYGSQKIEKLADTSPIKQDYTLLTGTPGGTWNKFPLNKSVGSILEIGSGYGRAPLHLSKAKNLRCEKYYGIDISEPLLRRLIKVKQEYNFFPEAEFNLICTSAEILPLEDNSIDLVISNCVFMHIPDAQLRSLLADISRVLKPGGIFVFNHSFHNKSCPSHIIHNFVRKLNPFVRNPVYLKQYSSAEINEMLASAGIQTKCPQYIVEPTEEYAILPETIKGIPVPFAKAINRSLKPSDALKETLAYGFSAYSSQLD, MGSDKIHHHHHHMTQTPVTLDQKVGEKRDRMRGVFSTQEIRKVGTGTTTRKTIQKSFWYVDEGDDGVIEVQPLNSNYVPSGPKRKIDRDELLDKFAPEPEFYVQTVFPKMRELNKTIARADRHRQKGETFSAEFEYNNALKVDEENVRANFGIGLTYLERGETDKADNIFERLVKLDAAFEEEHKHLFNEFGINLRKSKMYDQAVEYYGRALELSQGDENLHLNVARAYLEKQDFPHCLEHVLRALMINPAHEAGLKFLAWMEAKKLVPEDQRAAVAEAVARARSTGGTPASAANEG, MGSDKIHHHHHHMTQVDILILSNGPGEVTTWVRPVVRALRQQFGDDRNQVRISVVLSPCSNASGKEAAIALSYPEVDRVQAAEHFWQFLLWGKTIDNWDWRSRGVVVFLGGDQIFPVVIGKKLGYRTVVYAEWEARWHNWIDRFGVMKPEVAARAPHKYAHKFTVVGDLMVEANSHSSLVIGDLSNDKELMTNDIDASTTSHSVGQKTELIGLLPGSKAAKLAQGVPLCLSIAEYVHAKRPQTKFVIPVAPTLDLQTLASFADPQRNSIAEIFGFGGAALIVPEDDRDKALLKTAKGVTVELWQENPAYHLLSQCCICLTTVGANTAELGALGVPMIVLLPTQQLDAMRAWDGLPGLLANLPGVGTPFANTINWLFLRFVRRKGLLAWPNIWAQEEIVPELMGKLQPPEIGEMVVELLAHPEKLADIRAKLRNIRGESGAALKIAQIVCEEMGK, MGSDKIHHHHHHMTRKQFETLDLDNLEQNLQQAAELIAGRIRAIACDPVKQNISFEELAAIIPCDLPDEGHGPEAVIGEVARHIEPYSTRIGHPRFLAWITTSPGPAGTIGDMLCTGLNQAPLSFKGGPAATVLEEIVLGWFAGMFGMPEGWGGTIVSGGTMANLMGLTVARRVHAPQVHARGMQGLERPLVLYVSDQGHMSVTRSAVLLGIGEDNVRAVPSDSACRMIPHELEKAVQQDRRAGRLPFCVVAQAGSVTTGAVDPLPDIAAICRRENMWMHVDAAYGGAVMLADELRPLLAGIELADSVCVDPHKWFFVPLECGITLFRSREQQLETFRAKAAYLGAENPHDLKNTTFILSRANRALKVWFAFRSYGRLRIARIIRRNMELARQLYRLMCDHPEWEPLAPAPLSIVCGRYTPSAAVRGGWTEQQIDDLQLQMIEELERSGTALLTPAAVNGRAGVRVCIANHRTTPEDITLIFNTLTAIGTRIARPDEHETAGE, MGSDKIHHHHHHMTSALSEAGGYPPEGQGAYFLCDIFDAMPKNDLASMEHPLFSLSTRPDRRILNYEHNGAEITVTPSVKGLATIHDKDILIFCVSQLMAALNAGRQVSRVLHLTAHDLLVACNRETSGDAYRRLRESFERLAGTRITTNITTGGQEITTGFGLIESWEIVRKARGGRMVSVAVTLSDWLYRAVLSKSVLTLSRDYFRLRKPLERRIYELARKHCGRQDSWQISVETLLKKSGSASPRRVFRKMVRDMIESQPLPDYEMAELEGDIIRFSQKAAVVDVPPPVISEAARDEARRLMPGVDVHALEADWRATWARTGAPRLRKPDAAFVGWVRKRMND, MGSDKIHHHHHHMTTDHPSAYCFFQDLAPRPPLDAAFDRDYLLYAIRGALRVSVAGESWLLPPSFAAWLPANTPISVDIDKPVTTCSVLARPGLCTGLPEKACVFQMSPMARQMIHYCKDWGPDAAHPAQAEGFFLALLHVCADLAVKSVDVKRPTATDPVLRKAIDITEAHLAQAITANEIARKVNLSERSMQRHFQMDVGMTWSQTLTQLRMIHAVALLAEGKLSIIQIAGYTGFQSLSAFNRAFRTFAATTPTKFRKALLD
